This note sets out measurements from patent US20240261333A1 (published 2024).

Assay in all cases: co-IP, anti-FLAG, lysate of cells with N-FLAG B3GNT2; mass spectrometry
Assay [1] addresses T1, KRT4 (human, UniProt P19013 1-520).
T1 construct: also called NP_002263.3

Assay [2] deals with T2, PRRC2A (human, UniProt P48634 1-2157).
T2 construct: also called NP_004629.3 (+1)

Assay [3] concerns the target T3, SPTAN1 (human, UniProt Q13813-2 1-2477, limits assumed).
T3 construct: also called NP_001123910.1 (+10)

Assay [4] addresses T4, FUBP3 (human, UniProt Q96I24 2-572).
T4 construct: also called NP_003925.1 (+2)
T4 sequence (looked up): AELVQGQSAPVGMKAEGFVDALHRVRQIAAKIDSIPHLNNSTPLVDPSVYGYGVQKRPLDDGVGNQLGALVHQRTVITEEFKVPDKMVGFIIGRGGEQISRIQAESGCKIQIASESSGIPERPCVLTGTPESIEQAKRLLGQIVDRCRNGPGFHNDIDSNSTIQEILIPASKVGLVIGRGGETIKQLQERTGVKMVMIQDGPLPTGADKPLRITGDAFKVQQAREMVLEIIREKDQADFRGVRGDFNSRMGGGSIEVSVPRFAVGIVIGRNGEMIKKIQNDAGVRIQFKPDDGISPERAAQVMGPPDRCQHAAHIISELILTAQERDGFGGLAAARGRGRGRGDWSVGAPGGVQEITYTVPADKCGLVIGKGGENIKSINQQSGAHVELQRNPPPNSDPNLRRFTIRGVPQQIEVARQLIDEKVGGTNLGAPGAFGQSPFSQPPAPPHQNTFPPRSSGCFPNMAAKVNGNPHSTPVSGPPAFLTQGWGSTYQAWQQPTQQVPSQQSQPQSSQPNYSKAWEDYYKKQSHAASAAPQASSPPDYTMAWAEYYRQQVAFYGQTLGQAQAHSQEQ

For assay [5], the target named is RPS28 (human, UniProt P62857 1-69).
For assay [6], the target named is T5, HADHB (human, UniProt P55084 34-474).
T5 construct: also called NP_000174.1 (+3)
T5 sequence (looked up): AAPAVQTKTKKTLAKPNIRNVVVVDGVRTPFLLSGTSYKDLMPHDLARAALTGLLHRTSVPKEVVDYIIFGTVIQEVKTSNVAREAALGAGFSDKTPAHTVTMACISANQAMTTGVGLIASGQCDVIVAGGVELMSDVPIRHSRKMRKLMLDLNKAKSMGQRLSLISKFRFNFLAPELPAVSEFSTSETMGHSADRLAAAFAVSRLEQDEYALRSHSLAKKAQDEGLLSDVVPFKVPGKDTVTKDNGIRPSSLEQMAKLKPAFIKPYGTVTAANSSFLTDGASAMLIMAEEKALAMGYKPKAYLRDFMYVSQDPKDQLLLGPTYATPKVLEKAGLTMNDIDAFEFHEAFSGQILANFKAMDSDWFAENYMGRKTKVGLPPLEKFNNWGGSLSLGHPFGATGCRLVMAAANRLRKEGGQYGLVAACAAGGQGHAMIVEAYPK

Assay [7] addresses T6, KRT6B (human, UniProt P04259 2-564).
T6 construct: also called NP_00546.2
T6 sequence (looked up): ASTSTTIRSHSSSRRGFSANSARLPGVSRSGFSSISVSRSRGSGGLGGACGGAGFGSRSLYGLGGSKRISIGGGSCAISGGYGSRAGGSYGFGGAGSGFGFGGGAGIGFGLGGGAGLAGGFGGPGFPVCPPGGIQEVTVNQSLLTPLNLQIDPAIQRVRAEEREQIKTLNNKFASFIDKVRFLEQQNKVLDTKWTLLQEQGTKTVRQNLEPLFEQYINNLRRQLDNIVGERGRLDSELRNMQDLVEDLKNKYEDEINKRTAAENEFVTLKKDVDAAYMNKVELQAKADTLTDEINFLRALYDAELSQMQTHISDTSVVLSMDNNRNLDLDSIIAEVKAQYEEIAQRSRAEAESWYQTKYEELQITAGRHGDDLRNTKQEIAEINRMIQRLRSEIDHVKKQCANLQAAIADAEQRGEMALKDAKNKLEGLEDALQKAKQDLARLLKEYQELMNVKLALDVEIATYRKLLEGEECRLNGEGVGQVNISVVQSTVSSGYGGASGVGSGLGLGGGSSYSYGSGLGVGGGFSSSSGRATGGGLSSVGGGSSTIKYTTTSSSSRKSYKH

T1 sequence (P19013 whole entry): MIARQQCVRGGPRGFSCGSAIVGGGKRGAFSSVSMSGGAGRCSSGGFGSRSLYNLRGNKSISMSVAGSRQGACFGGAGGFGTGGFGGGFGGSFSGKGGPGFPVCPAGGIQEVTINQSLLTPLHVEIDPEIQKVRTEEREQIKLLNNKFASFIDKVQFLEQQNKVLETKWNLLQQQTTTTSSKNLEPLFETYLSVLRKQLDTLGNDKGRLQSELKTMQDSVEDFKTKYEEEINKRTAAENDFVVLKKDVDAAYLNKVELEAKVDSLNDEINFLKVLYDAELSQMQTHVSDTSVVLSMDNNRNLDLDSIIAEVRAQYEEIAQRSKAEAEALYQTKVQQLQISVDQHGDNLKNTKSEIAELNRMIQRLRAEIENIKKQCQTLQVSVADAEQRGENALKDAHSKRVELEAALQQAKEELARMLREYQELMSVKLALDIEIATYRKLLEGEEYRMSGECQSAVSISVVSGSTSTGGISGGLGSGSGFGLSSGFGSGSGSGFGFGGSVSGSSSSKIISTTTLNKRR
T2 sequence (P48634 whole entry): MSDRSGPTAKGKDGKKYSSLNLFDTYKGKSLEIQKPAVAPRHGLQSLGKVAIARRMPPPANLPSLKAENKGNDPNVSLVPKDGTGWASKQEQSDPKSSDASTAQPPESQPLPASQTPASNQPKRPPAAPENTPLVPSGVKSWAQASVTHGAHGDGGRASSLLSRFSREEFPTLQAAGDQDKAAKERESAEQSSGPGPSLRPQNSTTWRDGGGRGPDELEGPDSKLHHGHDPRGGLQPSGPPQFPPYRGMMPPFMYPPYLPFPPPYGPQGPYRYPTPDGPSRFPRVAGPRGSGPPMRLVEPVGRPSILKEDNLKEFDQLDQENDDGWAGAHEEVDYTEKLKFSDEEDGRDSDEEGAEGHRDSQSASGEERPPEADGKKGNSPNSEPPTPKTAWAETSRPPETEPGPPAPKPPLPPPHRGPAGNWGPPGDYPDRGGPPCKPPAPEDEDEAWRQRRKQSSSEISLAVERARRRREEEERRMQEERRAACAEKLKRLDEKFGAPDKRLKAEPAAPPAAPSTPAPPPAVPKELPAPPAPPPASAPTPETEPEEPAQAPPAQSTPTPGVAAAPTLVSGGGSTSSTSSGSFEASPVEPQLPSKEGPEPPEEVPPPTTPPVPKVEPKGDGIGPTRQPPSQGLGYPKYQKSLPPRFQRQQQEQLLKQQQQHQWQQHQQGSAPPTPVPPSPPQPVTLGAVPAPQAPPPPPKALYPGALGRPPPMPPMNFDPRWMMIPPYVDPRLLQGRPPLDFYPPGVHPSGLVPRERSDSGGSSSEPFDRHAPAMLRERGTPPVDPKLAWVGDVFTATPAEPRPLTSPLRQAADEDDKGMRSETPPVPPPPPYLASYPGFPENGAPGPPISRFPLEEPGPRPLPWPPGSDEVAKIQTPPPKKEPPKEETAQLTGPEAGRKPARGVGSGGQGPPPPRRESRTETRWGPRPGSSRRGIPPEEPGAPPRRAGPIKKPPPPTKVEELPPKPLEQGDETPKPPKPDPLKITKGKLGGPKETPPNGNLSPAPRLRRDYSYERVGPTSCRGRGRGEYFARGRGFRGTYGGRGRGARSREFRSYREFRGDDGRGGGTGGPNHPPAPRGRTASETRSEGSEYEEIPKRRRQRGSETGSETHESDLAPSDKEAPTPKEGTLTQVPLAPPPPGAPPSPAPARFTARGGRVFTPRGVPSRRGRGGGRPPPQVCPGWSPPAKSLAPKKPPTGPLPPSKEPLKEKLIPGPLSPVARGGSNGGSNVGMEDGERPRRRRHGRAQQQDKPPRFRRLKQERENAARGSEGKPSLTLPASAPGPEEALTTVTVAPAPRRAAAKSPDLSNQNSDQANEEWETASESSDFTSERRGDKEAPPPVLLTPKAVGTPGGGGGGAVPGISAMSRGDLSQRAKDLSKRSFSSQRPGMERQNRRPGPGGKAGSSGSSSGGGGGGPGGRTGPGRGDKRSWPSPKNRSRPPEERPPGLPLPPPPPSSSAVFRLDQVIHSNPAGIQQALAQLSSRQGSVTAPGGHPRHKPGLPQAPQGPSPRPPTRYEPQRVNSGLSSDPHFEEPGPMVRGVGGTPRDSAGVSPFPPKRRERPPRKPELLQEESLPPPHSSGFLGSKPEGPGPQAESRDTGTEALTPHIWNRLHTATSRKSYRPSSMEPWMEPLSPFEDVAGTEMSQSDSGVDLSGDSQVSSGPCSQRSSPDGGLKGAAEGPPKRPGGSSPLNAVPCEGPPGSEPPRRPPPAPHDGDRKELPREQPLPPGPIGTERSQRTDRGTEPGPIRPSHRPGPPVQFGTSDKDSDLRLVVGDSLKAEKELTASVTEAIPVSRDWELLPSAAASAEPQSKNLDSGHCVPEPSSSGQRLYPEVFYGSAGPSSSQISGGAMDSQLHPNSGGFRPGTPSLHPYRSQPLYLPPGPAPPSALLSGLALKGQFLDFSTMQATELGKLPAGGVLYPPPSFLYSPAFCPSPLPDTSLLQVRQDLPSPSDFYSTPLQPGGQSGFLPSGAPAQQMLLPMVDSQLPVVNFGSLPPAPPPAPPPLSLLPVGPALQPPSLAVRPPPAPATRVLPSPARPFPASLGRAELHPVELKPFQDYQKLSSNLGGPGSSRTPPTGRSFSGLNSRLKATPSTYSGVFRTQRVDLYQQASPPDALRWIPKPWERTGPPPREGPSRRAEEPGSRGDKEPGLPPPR

B1: N-terminal FLAG tagged B3GNT2 (enzyme, human, UniProt Q9NY97 1-397, looked up)
chain: MSVGRRRIKLLGILMMANVFIYFIMEVSKSSSQEKNGKGEVIIPKEKFWKISTPPEAYWNREQEKLNRQYNPILSMLTNQTGEAGRLSNISHLNYCEPDLRVTSVVTGFNNLPDRFKDFLLYLRCRNYSLLIDQPDKCAKKPFLLLAIKSLTPHFARRQAIRESWGQESNAGNQTVVRVFLLGQTPPEDNHPDLSDMLKFESEKHQDILMWNYRDTFFNLSLKEVLFLRWVSTSCPDTEFVFKGDDDVFVNTHHILNYLNSLSKTKAKDLFIGDVIHNAGPHRDKKLKYYIPEVVYSGLYPPYAGGGGFLYSGHLALRLYHITDQVHLYPIDDVYTGMCLQKLGLVPEKHKGFRTFDIEEKNKNNICSYVDLMLVHSRKPQEMIDIWSQLQSAHLKC
notes: Overexpressed in cells and pulled down from the lysate with mouse anti-FLAG antibody; also called N-FLAG B3GNT2; N-term FLAG; not shown: N-terminal FLAG tag
In the case of B1, the “co-IP mass spectrometry count” value was 22 in assay [1]; 2 in assay [2]; 0 in assay [3]; 8 in assay [4]; 0 in assay [5]; 0 in assay [6]. Also, in assay [7], the “co-IP mass spectrometry count” value worked out at 370.
